Assay results from patent publication US20240360228A1 (BIOLEGEND, published 2024).

Legend:
[1] = target: human chemokine (C-C motif) receptor 8 (CCR8) (human) (UniProt P51685); experiment: flow cytometry, human PBMC, CD3+ gate; % cells stained by PE-L263G8 after isotype control block
[2] = target: human chemokine (C-C motif) receptor 8 (CCR8) (human) (UniProt P51685); experiment: flow cytometry, human PBMC, CD3+ gate; % cells stained by PE-433H after isotype control block
[3] = target: T1, human chemokine (C-C motif) receptor 8 (CCR8) (human, UniProt P51685 1-355); experiment: flow cytometry blocking, human PBMC, CD3+ gate; competitor PE-AB8
T1 construct: also called hCCR8
T1 sequence (P51685 whole entry): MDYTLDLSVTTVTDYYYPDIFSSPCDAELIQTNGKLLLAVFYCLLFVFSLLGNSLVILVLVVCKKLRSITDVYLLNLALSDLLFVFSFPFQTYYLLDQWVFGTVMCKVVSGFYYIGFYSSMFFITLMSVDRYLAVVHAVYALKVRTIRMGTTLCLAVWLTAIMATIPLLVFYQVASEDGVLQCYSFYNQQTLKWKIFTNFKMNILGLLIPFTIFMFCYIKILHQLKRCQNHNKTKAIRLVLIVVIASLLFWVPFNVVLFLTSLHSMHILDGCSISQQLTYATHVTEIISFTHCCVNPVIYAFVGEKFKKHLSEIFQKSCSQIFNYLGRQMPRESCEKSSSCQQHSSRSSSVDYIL
Procedure: (§1) For blocking studies, 100 μL of the cell suspension were incubated with 10 μg purified isotype control, AB1, AB2, AB3, AB4, AB5, AB8, AB9, AB10, AB11, AB12, AB13, AB14, AB15, and Commercial ABI antibodies, or isotype control, as blocking agents.
(§2) After incubation with the blocking agent, the cells were incubated with 0.25 μg of the indicated PE-conjugated antibody plus anti-human CD4 APC or anti-human CD3 for another 15 minutes in the dark and then washed 2 times with Cell Staining Buffer, and acquired in a FACSCanto II flow cytometer (BD Biosciences); the data was analyzed using FCS Express (De Novo Software); MFI correspond to the CCR8+ CD4+ lymphocytes or CCR8+ CD3+ lymphocytes.
(§3) Percentage original MFI was calculated by dividing the MFI of samples blocked with AB1, AB2, AB3, AB4, AB5, AB6, AB7, AB8, AB9, AB10, AB11, AB12, AB13, AB14, AB15, and Commercial ABI antibodies, by the MFI of samples blocked with the corresponding isotype control. This value was subtracted from 100 to get a blocking percentage. The formula is shown below: […]

[4] = target: T1, human chemokine (C-C motif) receptor 8 …; experiment: flow cytometry blocking, human PBMC, CD3+ gate; competitor PE-AB7
Procedure: as §1, §2, §3

[5] = target: T1, human chemokine (C-C motif) receptor 8 …; experiment: flow cytometry blocking, human PBMC, CD3+ gate; % cells stained by competitor PE-AB12 after block
Procedure: as §1, §2

[6] = target: T1, human chemokine (C-C motif) receptor 8 …; experiment: flow cytometry blocking, human PBMC, CD3+ gate; competitor PE-AB11
Procedure: as §1, §2, §3

[7] = target: T1, human chemokine (C-C motif) receptor 8 …; experiment: flow cytometry blocking, human PBMC, CD3+ gate; % cells stained by competitor PE-AB8 after block
Procedure: as §1, §2

[8] = target: T1, human chemokine (C-C motif) receptor 8 …; experiment: flow cytometry blocking, human PBMC, CD3+ gate; competitor PE-AB13
Procedure: as §1, §2, §3

[9] = target: T1, human chemokine (C-C motif) receptor 8 …; experiment: flow cytometry blocking, human PBMC, CD3+ gate; % cells stained by competitor PE-AB13 after block
Procedure: as §1, §2

[10] = target: T1, human chemokine (C-C motif) receptor 8 …; experiment: flow cytometry blocking, human PBMC, CD3+ gate; % cells stained by competitor PE-433H after block
Procedure: as §1, §2

[11] = target: T1, human chemokine (C-C motif) receptor 8 …; experiment: flow cytometry blocking, human PBMC, CD3+ gate; competitor PE-L263G8
[12] = target: T1, human chemokine (C-C motif) receptor 8 …; experiment: flow cytometry blocking, human PBMC, CD3+ gate; competitor PE-433H
[13] = target: T1, human chemokine (C-C motif) receptor 8 …; experiment: flow cytometry blocking, human PBMC, CD3+ gate; % cells stained by competitor PE-AB15 after block
Procedure: as §1, §2

[14] = target: T1, human chemokine (C-C motif) receptor 8 …; experiment: flow cytometry blocking, human PBMC, CD3+ gate; % cells stained by competitor PE-AB11 after block
Procedure: as §1, §2

[15] = target: T1, human chemokine (C-C motif) receptor 8 …; experiment: flow cytometry blocking, human PBMC, CD3+ gate; % cells stained by competitor PE-AB7 after block
Procedure: as §1, §2

[16] = target: T1, human chemokine (C-C motif) receptor 8 …; experiment: flow cytometry blocking, human PBMC, CD3+ gate; % cells stained by competitor PE-AB5 after block
Procedure: as §1, §2

[17] = target: T1, human chemokine (C-C motif) receptor 8 …; experiment: flow cytometry blocking, human PBMC, CD3+ gate; competitor PE-AB6
Procedure: as §1, §2, §3

[18] = target: T1, human chemokine (C-C motif) receptor 8 …; experiment: flow cytometry blocking, human PBMC, CD3+ gate; % cells stained by competitor PE-AB10 after block
Procedure: as §1, §2

[19] = target: T1, human chemokine (C-C motif) receptor 8 …; experiment: flow cytometry blocking, human PBMC, CD3+ gate; % cells stained by competitor PE-AB14 after block
Procedure: as §1, §2

[20] = target: T1, human chemokine (C-C motif) receptor 8 …; experiment: flow cytometry blocking, human PBMC, CD3+ gate; % cells stained by competitor PE-L263G8 after block
Procedure: as §1, §2

[21] = target: T1, human chemokine (C-C motif) receptor 8 …; experiment: flow cytometry blocking, human PBMC, CD3+ gate; competitor PE-AB5
Procedure: as §1, §2, §3

[22] = target: T1, human chemokine (C-C motif) receptor 8 …; experiment: flow cytometry blocking, human PBMC, CD3+ gate; competitor PE-AB10
Procedure: as §1, §2, §3

[23] = target: T1, human chemokine (C-C motif) receptor 8 …; experiment: flow cytometry blocking, human PBMC, CD3+ gate; competitor PE-AB15
Procedure: as §1, §2, §3

[24] = target: T1, human chemokine (C-C motif) receptor 8 …; experiment: flow cytometry blocking, human PBMC, CD3+ gate; competitor PE-AB14
Procedure: as §1, §2, §3

[25] = target: T1, human chemokine (C-C motif) receptor 8 …; experiment: flow cytometry blocking, human PBMC, CD3+ gate; competitor PE-AB12
Procedure: as §1, §2, §3

[26] = target: T1, human chemokine (C-C motif) receptor 8 …; experiment: flow cytometry blocking, human PBMC, CD3+ gate; % cells stained by competitor PE-AB6 after block
Procedure: as §1, §2

Chain of human chemokine (C-C motif) receptor 8 (CCR8) (human) (P51685 whole entry): as above

| % Blocking [3] [%] | % Blocking [4] [%] | % Positive cells [5] [%] | % Blocking [6] [%] | % Positive cells [7] [%] | % Blocking [8] [%] | % Positive cells [9] [%] | % Positive cells [10] [%] | % Blocking [11] [%] | % Blocking [12] [%] | % Positive cells [13] [%] | % Positive cells [14] [%] | % Positive cells [15] [%] | % Positive cells [16] [%] | % Blocking [17] [%] | % Positive cells [18] [%] | % Positive cells [19] [%] | % Positive cells [20] [%] | % Blocking [21] [%] | % Blocking [22] [%] | Molecule | further results |
| --- | --- | --- | --- | --- | --- | --- | --- | --- | --- | --- | --- | --- | --- | --- | --- | --- | --- | --- | --- | --- | --- |
|  |  |  |  |  |  |  |  |  |  |  |  |  |  |  |  |  |  |  |  | Commercial L263G8 anti-human CCR8 antibody | % Positive cells [1]: 5.87% |
|  |  |  |  |  |  |  |  |  |  |  |  |  |  |  |  |  |  |  |  | Commercial 433H anti-human CCR8 antibody (antibody, from another filing, V domains shown) VH: EVQLVETGGGLVQPKGSLRLSCAASGFPFNTFAMNWVRQAPGKGLEWLARIRSKSNNYATYYADSVKDRFTISRDDSRRMLYLLMNNVKFEDTAIYYCVRGKENNYGYAMDYWGQGTSVTVSS VL: DIVMTQAAPSVPVTPGESVSISCRSSQSLLHSNGNTYLYWFLQRPGQSPQLLIYRMSNLASGVPDRFSGSGSGTAFTLRISRVEAEDVGVYYCMQHLEYPFTFGIGTKLELKR | % Positive cells [2]: 7.07% |
| -4.02 | 2.53 | 0.17 | 98.7 | 8.8 | 94.1 | 0.39 | 3.73 | 92.7 | 47.2 | 0.16 | 0.09 | 8.87 | 8.49 | 2.9 | 0.21 | 0.12 | 0.43 | -2.41 | 96.5 | anti-CCR8 monoclonal antibody AB11 (antibody, V domains shown, Hybridoma monoclonal; also called antibody 11; clone 11) VH: EVQLVESGGGLVQPKGSLKLSCAASGFAFNTYAMNWVRQAPGKGLEWIARLRSKSNFYATYYADSVKDRFTISRDDSQSMLYLQMNNLKTEDTAVYYCVRGRELGPSYAMDYWGQGTSVTVSS VL: DIVMTQAAPSVPVTPGESVSISCRSSKSLLHSNGNTYLYWFLQRPGQSPQLLIYRMSNLASGVPDRFSGSGSGTAFTLRISRVEAEDVGVYYCMQHLEYPYTFGGGTKLEIK | % Blocking [23]: 97.6%; % Blocking [24]: 98.3%; % Blocking [25]: 97.7%; % Positive cells [26]: 8.04% |
| 25.3 | 30.3 | 6 | 0.85 | 6.32 | 34.7 | 4.34 | 6.58 | 20.3 | 6.93 | 3.52 | 6.96 | 6.34 | 8.39 | -4.11 | 6.19 | 4.32 | 4.68 | -1.21 | -2.65 | anti-CCR8 monoclonal antibody AB13 (antibody, V domains shown, Hybridoma monoclonal; also called antibody 13; clone 13) VH: EVQLVETGGGLVQPKGSLKLSCAASGFTFNAYAMNWVRQAPGKGLEWVARIRTKSNNYATYYADSVKDRFTISRDDSQTMLYLQMNNLKTEDTAMYYCVRDRATVTTGRAMDYWGQGTSVTVSS VL: DIVMTQAAPSLPVTPGESVSISCRSSKSLLHSNGNTYLYWFLQRAGQSPQLLIYRMSNLASGVPDRFSGSGSGTAFTLRISRVEAEDVGVYYCMQHLEYPFTFGSGTKLEIK | % Blocking [23]: 46.5%; % Blocking [24]: 39.4%; % Blocking [25]: 20.3%; % Positive cells [26]: 8.62% |
